# According to the supplement of paper PMC10724198:
# ± gives the standard deviation of the averaged measurements.
# Tested on: Saccharomyces cerevisiae
# Experiment: protein stability index of tFT-peptide fusion (C-terminal peptide) (PSI (0-1 scale)); higher = more stable (slower turnover)
# Conditions: genetic background: wild type; temperature: 30 C
# 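Also: PSI is a weighted mean of sequencing reads over stability bins, variants kept only with over 10 reads, mCherry proximal and sfGFP distal, peptide attached via GGGS linker.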
sequence,measurement,value
VVCFLVHGWGGW,protein stability index,0.638 ± 0.048
PLPRPPPPPPPS,protein stability index,0.7 ± 0.048
PPPLLPPRAPSP,protein stability index,0.6294 ± 0.0031
SPPCPPPHPHPP,protein stability index,0.597 ± 0.012
LSAQNNTGIVKT,protein stability index,0.623 ± 0.0084
DSCPGAAGGRGG,protein stability index,0.642 ± 0.043
AFSTGSIILEPR,protein stability index,0.646 ± 0.016
LGWGWVWSWGRG,protein stability index,0.728 ± 0.052
QNQKKHTRQQNQ,protein stability index,0.722 ± 0.072
RKVRRTRNSEGE,protein stability index,0.726 ± 0.011
CKKRSRCGNTIM,protein stability index,0.755 ± 0.15
EIDAKNRDEETN,protein stability index,0.694 ± 0.019
WYTPDCLHCGPA,protein stability index,0.688 ± 0.013
WCLGLGCVWGGW,protein stability index,0.779 ± 0.092
VRSLSSPPAPAT,protein stability index,0.736 ± 0.038
CNVGAIVGLVWV,protein stability index,0.6002 ± 0.0019
PLIASPQPPFPT,protein stability index,0.6692 ± 0.0036
VLAGFVLNDWVP,protein stability index,0.731 ± 0.023
TPRPPQPGLSRT,protein stability index,0.67 ± 0.027
WRLGEREGWKAG,protein stability index,0.615 ± 0.0077
QPYTPHTAFPAQ,protein stability index,0.696 ± 0.011
VSRTVLSSDHRG,protein stability index,0.752 ± 0.076
FWGGGGGVGLAV,protein stability index,0.683 ± 0.063
CVLVVGVPAGGG,protein stability index,0.611 ± 0.028
PTPFVPSPPCRA,protein stability index,0.664 ± 0.041
AFYLYLSSTSRF,protein stability index,0.662 ± 0.0086
AWVLVVLGSSHR,protein stability index,0.586 ± 0.05
LARLTRHSKLGL,protein stability index,0.712 ± 0.066
FSPPLGRFLLRH,protein stability index,0.707 ± 0.062
MLPTPSPPRPPF,protein stability index,0.698 ± 0.021
HYVQARMRSAVP,protein stability index,0.636 ± 0.091
GGGLMVARFGPS,protein stability index,0.664 ± 0.037
PPPHPTLSPLVP,protein stability index,0.676 ± 0.013
PDRPPVARATRP,protein stability index,0.719 ± 0.017
EKKKKIKNKESI,protein stability index,0.6932 ± 0.0036
PPEPPLSSLRRP,protein stability index,0.674 ± 0.073
TDLPTSMHETRN,protein stability index,0.695 ± 0.028
PPRCPLPPLSPP,protein stability index,0.701 ± 0.11
VGGGGRRGKVWG,protein stability index,0.649 ± 0.035
RGGDIEVPSDQN,protein stability index,0.705 ± 0.019
YLSRIFPSLLFL,protein stability index,0.6 ± 0.03
LNNLTVVDVAGL,protein stability index,0.69 ± 0.017
RDLLPPLYLPSH,protein stability index,0.711 ± 0.039
DAGGGKLFGNSK,protein stability index,0.663 ± 0.019
GFWGSRTSGSIP,protein stability index,0.7335 ± 0.007
PATPPFSLPPPH,protein stability index,0.669 ± 0.025
QWGRGGRHVTDI,protein stability index,0.669 ± 0.038
VFGSGLRATGAV,protein stability index,0.635 ± 0.086
IIFQWVVPTILQ,protein stability index,0.546 ± 0.019
KRAREKDGKSAD,protein stability index,0.676 ± 0.032
AGCVAVYGVFLG,protein stability index,0.619 ± 0.13
STVRFGAPDYVH,protein stability index,0.6774 ± 0.0026
VGLSVRFPVANH,protein stability index,0.673 ± 0.037
SLLRLFFLALSY,protein stability index,0.542 ± 0.071
SSCSDLTKRLQQ,protein stability index,0.669 ± 0.054
KSPDSLDIRFHT,protein stability index,0.714 ± 0.13
CGWTSPSLVPTC,protein stability index,0.791 ± 0.045
NFRILIKKRGDE,protein stability index,0.643 ± 0.071
RASPVSSFSPPS,protein stability index,0.679 ± 0.041
TFGGLRVGFSSL,protein stability index,0.684 ± 0.028
SPLSSSDGSAAI,protein stability index,0.73 ± 0.022
PARLPSPSHPAS,protein stability index,0.776 ± 0.063
SIKNTQRFKIRN,protein stability index,0.663 ± 0.034
CGVYPQLSGGFG,protein stability index,0.687 ± 0.018
GITHSFLRSSVV,protein stability index,0.689 ± 0.054
LKDITVWRPKRG,protein stability index,0.658 ± 0.12
SPLSRSRPKSYL,protein stability index,0.75 ± 0.072
WGVWYGGAVRVG,protein stability index,0.5 ± 0.052
LLFVVSLPSFPC,protein stability index,0.636 ± 0.13
GWGFLGGTVAAV,protein stability index,0.697 ± 0.035
PLPPSPYPSPSP,protein stability index,0.661 ± 0.028
FLLVPSPPSFTH,protein stability index,0.715 ± 0.12
LLSYLRNCCAEH,protein stability index,0.687 ± 0.035
TCLDVFACYASF,protein stability index,0.666 ± 0.017
PYPPSSLPLQPA,protein stability index,0.654 ± 0.025
PRPPLPSTPEAA,protein stability index,0.612 ± 0.024
TTSKQHRPKQMN,protein stability index,0.708 ± 0.23
VYEGLRSGPRSL,protein stability index,0.718 ± 0.093
VHSGSVDVSSFS,protein stability index,0.697 ± 0.018
FCLSPGYHSQLC,protein stability index,0.692 ± 0.023
VCCAQVCICCLR,protein stability index,0.58 ± 0.017
PPSLTPPFSPLL,protein stability index,0.703 ± 0.027
RGGSGGSCMRYV,protein stability index,0.678 ± 0.066
DREKRKSGGERR,protein stability index,0.647 ± 0.039
RVGGGSGGEGRG,protein stability index,0.6553 ± 0.0043
EAGMGVGRCGTG,protein stability index,0.728 ± 0.01
PVWDGTAKLSVI,protein stability index,0.65 ± 0.026
QKSKSSYPESYV,protein stability index,0.777 ± 0.062
RGLIVGMGAGMV,protein stability index,0.671 ± 0.015
RLVGPFSSLRLF,protein stability index,0.649 ± 0.0072
LLSVPCPLVCRL,protein stability index,0.699 ± 0.037
PPAPPPHPPLPP,protein stability index,0.706 ± 0.043
VPVAAVGGGECG,protein stability index,0.575 ± 0.044
GWCAPLGLLLVL,protein stability index,0.539 ± 0.031
ELRISSTTVTSP,protein stability index,0.664 ± 0.008
VGRGGVRRLLQT,protein stability index,0.709 ± 0.037
TSASLFPLGPFR,protein stability index,0.666 ± 0.02
CTLSFRVAFFSL,protein stability index,0.5848 ± 0.00071
GGAMYVSFFDKF,protein stability index,0.68 ± 0.021
PPLLPPPPRRPP,protein stability index,0.643 ± 0.0012
FFLSDDALVYNH,protein stability index,0.788 ± 0.065
